Results on 3 molecules are retold here after US7790682B1, “Engineered human acidic fibroblast growth factors and associated methods” (The Florida State University Research Foundation, Inc., priority 2003, dated 2010).

The nature of data set [1]: Isothermal equilibrium denaturation in guanidine HCl monitored by CD. The format is physicochemical. The settings on record: for Cm / m-value / ΔG0: GuHCl, 298K, CD signal at 227 nm; for ΔΔG: relative to WT*, negative value = more stable. On the procedure: Protein samples were equilibrated overnight in 20 mM N-2-(acetamido)iminodiacetic acid (ADA), 100 mM NaCl pH 6.60 at 298K in 0.1M increments of guanidine HCl (GuHCl). All samples contained a final protein concentration of 25 μM. An Aviv model 202 circular dichroism spectrometer (Proterion Corp., Piscataway, N.J.) equipped with a Peltier controlled temperature unit maintaining a constant temperature of 298K was used for all spectroscopic measurements. For each sample, triplicate scans were collected and averaged. Buffer traces were collected, averaged and subtracted from the sample traces. Data smoothing was performed prior to buffer subtraction using a 5-point Fourier transform filter. The denaturation process was monitored by observing the change in CD signal at 227 nm with increasing GuHCl, according to published references. The general purpose non-linear least squares fitting program DataFit™ (Oakdale Engineering, Oakdale Pa.) was used to fit the change in molar ellipticity at 227 nm versus GuHCl concentration to a six parameter two state model: F=(F0N+SN[D]+F0D+SD[D])e^−((ΔG0+m[D]/RT)/1+e^−((ΔG0+m[D]/RT) (1) where [D] is the denaturant concentration, F0N and F0D are the 0M denaturant molar ellipticity intercepts for the native and denatured states, respectively, and SN and SD are the slopes of the native and denatured state baselines, respectively. ΔG0 and m describe the linear function of the unfolding free energy versus denaturant concentration at 298K. The effect of a given mutation upon the stability of the protein (ΔΔG) was calculated by taking the difference between the Cm values for WT* and mutant and multiplying by the average of the m values, as described by Pace and Scholtz (Measuring the conformational stability of a protein; in Protein Structure: A Practical Approach, Creighton, T. E., ed., pp. 299-321, Oxford University Press, Oxford; 1997): ΔΔG=(CmWT*−Cm mutant)(mWT*+mmutant)/2 (2) Folding Kinetics Measurements.
Previous studies by others of the stability and folding of FGF-1 have been performed by monitoring the fluorescence signal of the single buried Trp 107 in FGF-1. This Trp in the WT* structure is somewhat unusual in that it is more highly quenched in the native state than the denatured. […] We have previously compared the fluorescence and CD spectroscopic response of FGF-1 to denaturation by GuHCl and shown essentially indistinguishable results for both his-tagged and non-his-tagged forms. A tabulation of the mutant thermodynamic data from isothermal equilibrium denaturation, monitored by CD signal, is listed in Table II. The data in this table for the SYM6 mutant are from our previously published isothermal equilibrium denaturation study monitored by fluorescence.

Data set [2] can be described thus: Folding and unfolding kinetics (Chevron plot, stopped-flow CD, GuHCl). Format: physicochemical. The settings on record: for kf: folding rate constant extrapolated to 0M GuHCl; for kf / ku: global Chevron fit; for ΔΔG‡-D / ΔΔG‡-N: in reference to WT*; for ΔΔG‡-D: positive value = decrease in folding activation barrier; for ΔΔG‡-N: positive value = decrease in unfolding activation barrier; for mf: slope of ln(kf) vs GuHCl; for mu: slope of ln(ku) vs GuHCl; for ku: unfolding rate constant extrapolated to 0M GuHCl. As for the experimental part: Due to signal-to-noise considerations, relatively high protein concentrations (>100 μM) of FGF-1 were required for kinetic studies monitored by CD. At these concentrations protein precipitation occurred in ADA buffer. Therefore, a different buffering system was chosen for the kinetic studies to permit higher protein concentrations without precipitation. Protein samples were dialyzed against 50 mM sodium phosphate, 100 mM NaCl, 10 mM ammonium sulfate, 2 mM DTT, and typically 2.5, 3.0 or 3.8M GuHCl pH 7.5 overnight at 298K prior to data collection (higher concentrations of GuHCl were required to ensure complete denaturation for some stabilizing mutations).
Protein samples were degassed for 10 minutes prior to analysis. Refolding was initiated by a 1:10 dilution of protein solutions into 50 mM sodium phosphate, 100 mM NaCl, 10 mM ammonium sulfate, 2 mM DTT pH 7.5 containing either 0.1M or 0.05M increments of GuHCl up to the midpoint of denaturation. All data were collected using an Aviv model SF305 stopped flow system. Data collection times for each protein were designed to quantify the CD signal over 5 half-lives, or >96% of the total expected amplitude.
Protein samples (300 μM) were dialyzed against 50 mM sodium phosphate, 100 mM NaCl, 10 mM ammonium sulfate, 2 mM DTT pH 7.50 buffer overnight at 298K, and degassed for 10 min prior to data collection. Unfolding was initiated by 1:10 dilution of the native protein into 50 mM sodium phosphate, 100 mM NaCl, 10 mM ammonium sulfate, 2 mM DTT pH 7.5 buffer with final GuHCl concentration in the range of 1.5 to 5.5M in 0.5M increments. The unfolding process was quantified by following the change in CD signal at 227 nm, and data collection times for each protein were designed so as to monitor the CD signal over 3 to 4 half-lives, or >93% of the total expected amplitude.
Triplicate scans were collected for both folding and unfolding kinetic data at each GuHCl buffer condition. In all cases, data from at least three separate experiments were averaged. The kinetic rates and amplitudes versus denaturant concentration were calculated from the time dependent change in CD signal using a single exponential model: I(t)=Aexp(−kt)+C (3) where I(t) is the intensity of CD signal at time t, A is the corresponding amplitude, k is the observed rate constant for the reaction and C is a constant that is the asymptote of the CD signal. Folding and unfolding rate constant data were fit to a global function describing the contribution of both rate constants to the observed kinetics as a function of denaturant (“Chevron” plot): In(kobs)=In(kf0exp(mkfD)+ku0exp(mkuD)) (5) where kf0 and ku0 are the folding and unfolding rate constants, respectively, extrapolated to 0M denaturant, mkf and mku are the slopes of the linear functions relating In(kf) and In(ku), respectively, to D, the denaturant concentration. Changes in activation barriers upon mutation were calculated using a modified version of transition state theory: ΔΔG‡-D=RTIn(kf Mut/kfWT*) and ΔΔG‡-N=RTIn(ku Mut/kuWT*) (6) where kf Mut, ku Mut, kf WT* and ku WT* are the folding and unfolding rates for mutant and WT*, respectively, in water. ΔΔG‡-D, and ΔΔG‡-N are the changes in the activation barrier for folding and unfolding, respectively, between mutation and WT*. A positive value for ΔΔG‡-D or ‡‡G‡-N indicates a decrease in the associated activation barrier energy. Isothermal Titration Calorimetry.
Due to the relatively weak differential CD signal of native and denatured FGF-1, the folding kinetics study required relatively high protein concentrations (>5 mg/ml). […] Thus, the refolding rate constants were not obtainable below certain denaturant concentrations for these mutants. […] The SYM6Δ120-122 mutant is substantially destabilized relative to the WT* protein (see Table II) and presents a relatively short “folding arm” in the Chevron plot, for this reason there is greater uncertainty associated with the folding kinetics determined for this mutant. […]

B1: SYM6/Δ104-106: SYM6 FGF-1 mutant plus Ala103→Gly/ΔGlu104/ΔLys105/ΔAsn106 (protein, UniProt P05230 16-155, looked up, variant A103G E104* K105* N106*)
Fibroblast growth factor 1: FNLPPGNYKKPKLLYCSNGGHFLRILPDGTVDGTRDRSDQHIQLQLSAESVGEVYIKSTETGQYLAMDTDGLLYGSQTPNEECLFLERLEENHYNTYISKKHGWFVGLKKNGSCKRGPRTHYGQKAILFLPLPVSSD
modifications: SYM6 background mutations
notes: SYM6 FGF-1 mutant plus Ala103→Gly/ΔGlu104/ΔLys105/ΔAsn106
Take B1: in data set [1], the Cm is 1.21 ± 0.01 M, the m-value is recorded as 16.9 ± 0.5 kJ/mol M, the ΔG0 amounted to 20.5 ± 0.5 kJ/mol and the ΔΔG was -2.8 kJ/mol. For the same molecule, in data set [2], the kf is 30.1 s⁻¹, the “ΔΔG‡-D” value was 5.47 kJ/mol, the “ΔΔG‡-N” value stood at 3.91 kJ/mol and the mf was -5.41 M⁻¹. In addition, in data set [2], the mu was found to be 0.94 M⁻¹ and the ku is recorded as 3.33 1 × 10^−3 sec^−1.

B2: SYM6/Δ120-122: SYM6 FGF-1 mutant plus Arg119→Gly/ΔGly120/ΔPro121/ΔArg122 (protein, UniProt P05230 16-155, looked up, variant L44F M67I L73V V109L L111I C117V R119G del120-122)
Fibroblast growth factor 1: FNLPPGNYKKPKLLYCSNGGHFLRILPDGTVDGTRDRSDQHIQFQLSAESVGEVYIKSTETGQYLAIDTDGLVYGSQTPNEECLFLERLEENHYNTYISKKHAEKNWFLGIKKNGSVKGTHYGQKAILFLPLPVSSD
In data set [1], B2 yielded a Cm of 0.79 ± 0.01 M, a m-value of 20.0 ± 0.2 kJ/mol M, a ΔG0 of 15.7 ± 0.2 kJ/mol and a ΔΔG of 5.4 kJ/mol. Also, in data set [2], the kf was 17.3 s⁻¹, the “ΔΔG‡-D” value was found to be 4.10 kJ/mol, the “ΔΔG‡-N” value worked out at 6.07 kJ/mol and the mf was -9.45 M⁻¹. In addition, in data set [2], the mu worked out at 0.86 M⁻¹ and the ku is listed as 7.95 1 × 10^−3 sec^−1.

B3: SYM5/ΔΔ: SYM5 FGF-1 mutant plus both Δ104-106 and Δ120-122 deletion mutations (protein, UniProt P05230 16-155, looked up, variant L44F L73V V109L L111I C117V A103G del104-106 R119G del120-122)
Fibroblast growth factor 1: FNLPPGNYKKPKLLYCSNGGHFLRILPDGTVDGTRDRSDQHIQFQLSAESVGEVYIKSTETGQYLAMDTDGLVYGSQTPNEECLFLERLEENHYNTYISKKHGWFLGIKKNGSVKGTHYGQKAILFLPLPVSSD
Take B3: in data set [1], the Cm was determined as 1.89 ± 0.01 M, the m-value worked out at 18.1 ± 0.7 kJ/mol M, the ΔG0 was determined as 34.2 ± 1.2 kJ/mol and the ΔΔG was -15.9 kJ/mol. The “stability of the actual combination mutant” value in data set [1] (relative to the SYM5 protein) is -15.1 kJ/mol. Further, the folding behavior entry in data set [2] (all denaturant concentrations evaluated) is listed as “single exponential folding behavior”. For the same molecule, in data set [2], the kf is 40.4 s⁻¹, the “ΔΔG‡-D” value came to 6.20 kJ/mol, the “ΔΔG‡-N” value was determined as 0.61 kJ/mol and the mf is -4.57 M⁻¹. In data set [2], the mu came out at 0.66 M⁻¹ and the ku is 0.88 1 × 10^−3 sec^−1.
